Reference: PMC6804253, “Predicting and Experimentally Validating Hot-Spot Residues at Protein–Protein Interfaces” (ACS Chemical Biology, 2019)
Numbering of substitutions follows the chain as printed.

B1: 1DFJ EI202A (protein, UniProt P10775 1-456, looked up, variant E202A)
Ribonuclease inhibitor: MNLDIHCEQLSDARWTELLPLLQQYEVVRLDDCGLTEEHCKDIGSALRANPSLTELCLRTNELGDAGVHLVLQGLQSPTCKIQKLSLQNCSLTEAGCGVLPSTLRSLPTLRELHLSDNPLGDAGLRLLCEGLLDPQCHLEKLQLEYCRLTAASCEPLASVLRATRALKELTVSNNDIGEAGARVLGQGLADSACQLETLRLANCGLTPANCKDLCGIVASQASLRELDLGSNGLGDAGIAELCPGLLSPASRLKTLWLWECDITASGCRDLCRVLQAKETLKELSLAGNKLGDEGARLLCESLLQPGCQLESLWVKSCSLTAACCQHVSLMLTQNKHLLELQLSSNKLGDSGIQELCQALSQPGTTLRVLCLGDCEVTNSGCSSLASLLLANRSLRELDLSNNCVGDPGVLQLLGSLEQPGCALEQLVLYDTYWTEEVEDRLQALEGSKPGLRVIS
B2: 1DFJ EI397A (protein, UniProt P10775 1-456, looked up, variant E397A)
Ribonuclease inhibitor: B1 Ribonuclease inhibitor with A202E, E397A
B3: 1DFJ EI283A (protein, UniProt P10775 1-456, looked up, variant E283A)
Ribonuclease inhibitor: B1 Ribonuclease inhibitor with A202E, E283A
B4: 1DFJ RI453A (protein, UniProt P10775 1-456, looked up, variant R453A)
Ribonuclease inhibitor: B1 Ribonuclease inhibitor with A202E, R453A
B5: 1DFJ DI431A (protein, UniProt P10775 1-456, looked up, variant D431A)
Ribonuclease inhibitor: B1 Ribonuclease inhibitor with A202E, D431A
B6: 1DFJ KI316A (protein, UniProt P10775 1-456, looked up, variant K316A)
Ribonuclease inhibitor: B1 Ribonuclease inhibitor with A202E, K316A
B7: 1DFJ EI340A (protein, UniProt P10775 1-456, looked up, variant E340A)
Ribonuclease inhibitor: B1 Ribonuclease inhibitor with A202E, E340A
B8: 1DAN RU196A (protein, UniProt P13726 33-251, looked up, variant R196A)
extracellular domain: SGTTNTVAAYNLTWKSTNFKTILEWEPKPVNQVYTVQISTKSGDWKSKCFYTTDTECDLTDEIVKDVKQTYLARVFSYPAGNVESTGSAGEPLYENSPEFTPYLETNLGQPTIQSFEQVGTKVNVTVEDERTLVRRNNTFLSLRDVFGKDLIYTLYYWKSSSSGKKTAKTNTNEFLIDVDKGENYCFSVQAVIPSATVNRKSTDSPVECMGQEKGEFRE
modifications: extracellular domain
B9: 1DAN EU208A (protein, UniProt P13726 33-251, looked up, variant E208A)
extracellular domain: B8 extracellular domain with A196R, E208A
modifications: extracellular domain
B10: 1KTZ RA25A (protein, UniProt P10600 301-412, looked up, variant R25A)
Transforming growth factor …: ALDTNYCFRNLEENCCVRPLYIDFAQDLGWKWVHEPKGYYANFCSGPCPYLRSADTTHSTVLGLYNTLNPEASASPCCVPQDLEPLTILYYVGRTPKVEQLSNMVVKSCKCS
B11: 1KTZ RA94A (protein, UniProt P10600 301-412, looked up, variant R94A)
Transforming growth factor …: B10 Transforming growth factor … with A25R, R94A
B12: 1JRH KI47A (protein, UniProt P15260 18-245, looked up, variant K47A)
extracellular domain: EMGTADLGPSSVPTPTNVTIESYNMNPIVYWEYQIMPQVPVFTVEVANYGVKNSEWIDACINISHHYCNISDHVGDPSNSLWVRVKARVGQKESAYAKSEEFAVCRDGKIGPPKLDIRKEEKQIMIDIFHPSVFVNGDEQEVDYDPETTCYIRVYNVYVRMNGSEIQYKILTQKEDDCDEIQCQLAIPVSSLNSQYCVSAEGVLHVWGVTTEKSKEVCITIFNSSIKG
modifications: extracellular domain
B13: 1JRH RI84A (protein, UniProt P15260 18-245, looked up, variant R84A)
extracellular domain: B12 extracellular domain with A47K, R84A
modifications: extracellular domain
B14: 1JRH KI52A (protein, UniProt P15260 18-245, looked up, variant K52A)
extracellular domain: B12 extracellular domain with A47K, K52A
modifications: extracellular domain
B15: 1JRH KI98A (protein, UniProt P15260 18-245, looked up, variant K98A)
extracellular domain: B12 extracellular domain with A47K, K98A
modifications: extracellular domain
B16: 1EMV DA26A (protein, UniProt P13479 1-86, looked up, variant D26A)
Colicin-E9 immunity protein: MELKHSISDYTEAEFLQLVTTICNAATSSEEELVKLVTHFEEMTEHPSGSDLIYYPKEGDDDSPSGIVNTVKQWRAANGKSGFKQG
B17: 1EMV EA32A (protein, UniProt P13479 1-86, looked up, variant E32A)
Colicin-E9 immunity protein: B16 Colicin-E9 immunity protein with A26D, E32A
B18: 1EMV HA46A (protein, UniProt P13479 1-86, looked up, variant H46A)
Colicin-E9 immunity protein: B16 Colicin-E9 immunity protein with A26D, H46A
B19: 1EMV DA51A (protein, UniProt P13479 1-86, looked up, variant D51A)
Colicin-E9 immunity protein: B16 Colicin-E9 immunity protein with A26D, D51A
B20: 1EMV EA41A (protein, UniProt P13479 1-86, looked up, variant E41A)
Colicin-E9 immunity protein: B16 Colicin-E9 immunity protein with A26D, E41A
B21: 1EMV EA31A (protein, UniProt P13479 1-86, looked up, variant E31A)
Colicin-E9 immunity protein: B16 Colicin-E9 immunity protein with A26D, E31A
B22: 1EMV DA60A (protein, UniProt P13479 1-86, looked up, variant D60A)
Colicin-E9 immunity protein: B16 Colicin-E9 immunity protein with A26D, D60A
B23: 1IAR EA19A (protein, UniProt P05112 25-153, looked up, variant E19A)
Interleukin-4: HKCDITLQEIIKTLNSLTAQKTLCTELTVTDIFAASKNTTEKETFCRAATVLRQFYSHHEKDTRCLGATAQQFHRHKQLIRFLKRLDRNLWGLAGLNSCPVKEANQSTLENFLERLKTIMREKYSKCSS
B24: 1IAR KA84A (protein, UniProt P05112 25-153, looked up, variant K84A)
Interleukin-4: B23 Interleukin-4 with A19E, K84A
B25: 1IAR RA85A (protein, UniProt P05112 25-153, looked up, variant R85A)
Interleukin-4: B23 Interleukin-4 with A19E, R85A
B26: 1IAR RA81A (protein, UniProt P05112 25-153, looked up, variant R81A)
Interleukin-4: B23 Interleukin-4 with A19E, R81A
B27: 1IAR KA77A (protein, UniProt P05112 25-153, looked up, variant K77A)
Interleukin-4: B23 Interleukin-4 with A19E, K77A

Test system: PPIs of the SKEMPI data set (by PDBID)
Assay: not given
Conditions: SKEMPI experimental ΔΔG of binding, single mutation to alanine; complex by PDBID; ref SKEMPI; cited from earlier work
For B1, the sk_ddG_kJ is listed as 4.27 kJ. In the case of B2, the sk_ddG_kJ is given as 5.48 kJ. In the case of B3, the sk_ddG_kJ is listed as 5.52 kJ. For B4, the sk_ddG_kJ is listed as 3.56 kJ. For B5, the sk_ddG_kJ is given as 15.31 kJ. In the case of B6, the sk_ddG_kJ is listed as 5.44 kJ. For B7, the sk_ddG_kJ is given as 6.57 kJ. For B8, the sk_ddG_kJ is given as 1.92 kJ. For B9, the sk_ddG_kJ is given as 0.00 kJ.

Same assay, conditions: sheet sortedByGroup, r_group DERKH; complex given by PDBID; ref SKEMPI; cited from earlier work
For B10, the “sk_ddG_kJ (SKEMPI experimental ΔΔG, single mutation to alanine)” value is given as 6.19 kJ. For B11, the “sk_ddG_kJ (SKEMPI experimental ΔΔG, single mutation to alanine)” value is listed as 12.05 kJ. In the case of B12, the “sk_ddG_kJ (SKEMPI experimental ΔΔG, single mutation to alanine)” value is listed as 16.11 kJ. In the case of B13, the “sk_ddG_kJ (SKEMPI experimental ΔΔG, single mutation to alanine)” value is given as 4.31 kJ. For B14, the “sk_ddG_kJ (SKEMPI experimental ΔΔG, single mutation to alanine)” value is given as 15.86 kJ. In the case of B15, the “sk_ddG_kJ (SKEMPI experimental ΔΔG, single mutation to alanine)” value is listed as 2.80 kJ.

Same assay, conditions: single mutation to alanine, complex by PDBID; sheet sortedByGroup, r_group DERKH; ref SKEMPI; cited from earlier work
For B16, the “sk_ddG_kJ (SKEMPI experimental ΔΔG, mutation to alanine)” value is listed as 1.42 kJ. In the case of B17, the “sk_ddG_kJ (SKEMPI experimental ΔΔG, mutation to alanine)” value is listed as 0.92 kJ. For B18, the “sk_ddG_kJ (SKEMPI experimental ΔΔG, mutation to alanine)” value is listed as 3.47 kJ. In the case of B19, the “sk_ddG_kJ (SKEMPI experimental ΔΔG, mutation to alanine)” value is listed as 24.77 kJ. For B20, the “sk_ddG_kJ (SKEMPI experimental ΔΔG, mutation to alanine)” value is given as 8.70 kJ. For B21, the “sk_ddG_kJ (SKEMPI experimental ΔΔG, mutation to alanine)” value is given as 1.30 kJ. In the case of B22, the “sk_ddG_kJ (SKEMPI experimental ΔΔG, mutation to alanine)” value is listed as 2.13 kJ. In the case of B23, the “sk_ddG_kJ (SKEMPI experimental ΔΔG, mutation to alanine)” value is listed as -1.34 kJ. In the case of B24, the “sk_ddG_kJ (SKEMPI experimental ΔΔG, mutation to alanine)” value is given as 1.46 kJ. For B25, the “sk_ddG_kJ (SKEMPI experimental ΔΔG, mutation to alanine)” value is listed as 1.80 kJ. In the case of B26, the “sk_ddG_kJ (SKEMPI experimental ΔΔG, mutation to alanine)” value is given as 2.01 kJ. For B27, the “sk_ddG_kJ (SKEMPI experimental ΔΔG, mutation to alanine)” value is listed as 0.63 kJ.

Test system: PPIs of the SKEMPI data set (by PDBID)
Assay: SKEMPI experimental ΔΔG, single mutations to alanine
Format: binding
Conditions: class by the 4.184 kJ/mol threshold; r_group DERKH
In the case of B16, the “sk_class (class of the SKEMPI experimental ΔΔG)” value is reported as “Neutral (neutral (little effect) 4.184 kJ/mol < ΔΔG > −4.184 kJ/mol)”. With B17 the “sk_class (class of the SKEMPI experimental ΔΔG)” value was “Neutral (neutral (little effect) 4.184 kJ/mol < ΔΔG > −4.184 kJ/mol)”. With B18 the “sk_class (class of the SKEMPI experimental ΔΔG)” value was “Neutral (neutral (little effect) 4.184 kJ/mol < ΔΔG > −4.184 kJ/mol)”. For B19, the “sk_class (class of the SKEMPI experimental ΔΔG)” value was “Positive (positive (a hot residue) ΔΔG ≥ 4.184 kJ/mol)”. For B20, the “sk_class (class of the SKEMPI experimental ΔΔG)” value was “Positive (positive (a hot residue) ΔΔG ≥ 4.184 kJ/mol)”. In the case of B21, the “sk_class (class of the SKEMPI experimental ΔΔG)” value is reported as “Neutral (neutral (little effect) 4.184 kJ/mol < ΔΔG > −4.184 kJ/mol)”. With B22 the “sk_class (class of the SKEMPI experimental ΔΔG)” value was “Neutral (neutral (little effect) 4.184 kJ/mol < ΔΔG > −4.184 kJ/mol)”. For B23, the “sk_class (class of the SKEMPI experimental ΔΔG)” value was “Neutral (neutral (little effect) 4.184 kJ/mol < ΔΔG > −4.184 kJ/mol)”. In the case of B24, the “sk_class (class of the SKEMPI experimental ΔΔG)” value is reported as “Neutral (neutral (little effect) 4.184 kJ/mol < ΔΔG > −4.184 kJ/mol)”. With B25 the “sk_class (class of the SKEMPI experimental ΔΔG)” value was “Neutral (neutral (little effect) 4.184 kJ/mol < ΔΔG > −4.184 kJ/mol)”. In the case of B26, the “sk_class (class of the SKEMPI experimental ΔΔG)” value is reported as “Neutral (neutral (little effect) 4.184 kJ/mol < ΔΔG > −4.184 kJ/mol)”. With B27 the “sk_class (class of the SKEMPI experimental ΔΔG)” value was “Neutral (neutral (little effect) 4.184 kJ/mol < ΔΔG > −4.184 kJ/mol)”.

Same assay, conditions: class of the SKEMPI experimental ΔΔG
For B10, the sk_class was “Positive (positive (a hot residue) ΔΔG ≥ 4.184 kJ/mol)”. With B11 the sk_class was “Positive (positive (a hot residue) ΔΔG ≥ 4.184 kJ/mol)”. For B12, the sk_class was “Positive (positive (a hot residue) ΔΔG ≥ 4.184 kJ/mol)”. With B13 the sk_class was “Positive (positive (a hot residue) ΔΔG ≥ 4.184 kJ/mol)”. In the case of B14, the sk_class is reported as “Positive (positive (a hot residue) ΔΔG ≥ 4.184 kJ/mol)”. With B15 the sk_class was “Neutral (neutral (little effect) 4.184 kJ/mol < ΔΔG > −4.184 kJ/mol)”.

Same assay, conditions: class of the SKEMPI experimental ΔΔG; ref SKEMPI
In the case of B1, the sk_class is reported as “Positive (positive (a hot residue) ΔΔG ≥ 4.184 kJ/mol)”. For B2, the sk_class was “Positive (positive (a hot residue) ΔΔG ≥ 4.184 kJ/mol)”. With B3 the sk_class was “Positive (positive (a hot residue) ΔΔG ≥ 4.184 kJ/mol)”. With B4 the sk_class was “Neutral (neutral (little effect) 4.184 kJ/mol < ΔΔG > −4.184 kJ/mol)”. In the case of B5, the sk_class is reported as “Positive (positive (a hot residue) ΔΔG ≥ 4.184 kJ/mol)”. In the case of B6, the sk_class is reported as “Positive (positive (a hot residue) ΔΔG ≥ 4.184 kJ/mol)”. In the case of B7, the sk_class is reported as “Positive (positive (a hot residue) ΔΔG ≥ 4.184 kJ/mol)”. In the case of B8, the sk_class is reported as “Neutral (neutral (little effect) 4.184 kJ/mol < ΔΔG > −4.184 kJ/mol)”. In the case of B9, the sk_class is reported as “Neutral (neutral (little effect) 4.184 kJ/mol < ΔΔG > −4.184 kJ/mol)”.
